Results from patent US20120202233.

Molecular target: myc-CRAF (wild type)

B1: FLAG-KSR (wild-type KSR1) (protein)
chain: MDRAALRAAAMGEKKEGGGGGAAADGGAGAAVSRALQQCGQLQKLIDISIGSLRGLRTKCSVSNDLTQQEIRTLEAKLVKYICKQQQSKLSVTPSDRTAELNSYPRFSDWLYIFNVRPEVVQEIPQELTLDALLEMDEAKAKEMLRRWGASTEECSRLQQALTCLRKVTGLGGEHKMDSGWSSTDARDSSLGPPMDMLSSLGRAGASTQGPRSISVSALPASDSPVPGLSEGLSDSCIPLHTSGRLTPRALHSFITPPTTPQLRRHAKLKPPRTPPPPSRKVFQLLPSFPTLTRSKSHESQLGNRIDDVTPMKFELPHGSPQLVRRDIGLSVTHRFSTKSWLSQVCNVCQKSMIFGVKCKHCRLKCHNKCTKEAPACRITFLPLARLRRTESVPSDINNPVDRAAEPHFGTLPKALTKKEHPPAMNLDSSSNPSSTTSSTPSSPAPFLTSSNPSSATTPPNPSPGQRDSRFSFPDISACSQAAPLSSTADSTRLDDQPKTDVLGVHEAEAEEPEAGKSEAEDDEEDEVDDLPSSRRPWRGPISRKASQTSVYLQEWDIPFEQVELGEPIGQGRWGRVHRGRWHGEVAIRLLEMDGHNQDHLKLFKKEVMNYRQTRHENVVLFMGACMNPPHLAIITSFCKGRTLHSFVRDPKTSLDINKTRQIAQEIIKGMGYLHAKGIVHKDLKSKNVFYDNGKVVITDFGLFGISGVVREERRENQLKLSHDWLCYLAPEIVREMIPGRDEDQLPFSKAADVYAFGTVWYELQARDWPFKHQPAEALIWQIGSGEGVRRVLASVSLGKEVGEILSACWAFDLQERPSFSLLMDMLERLPKLNRRLSHPGHFWKSADINSSKVMPRFERFGLGTLESGNPKM
in vitro kinase activity towards purified MEK in KSR immunoprecipitates, phospho-MEK antibody (FIG. 1G): Treatment of cells with PLX4720 induced kinase activity towards MEK in the KSR immunoprecipitates and only occurred when KSR and CRAF were co-expressed together
